Experimental findings from publication PMC7677311, “Disrupting Plasmodium UIS3–host LC3 interaction with a small molecule causes parasite elimination from host cells” (Communications Biology, 2020) are described below.

The target in the experiment is LC3 (Microtubule-associated protein 1A/1B-light chain 3) (UniProt Q9GZQ8 1-120). As to the kind of experiment: ITC; 100 µM LC3 titrated into 10 µM PfUIS3; MicroCal ITC 200, 25 °C; 50 mM sodium phosphate, 150 mM NaCl, pH 6.5; one-site binding model. The note with it: both partners purified.

B1: Plasmodium falciparum UIS3 (Upregulated in infective sporozoites 3) (natural protein)
chain: INKINLNKPIIENKNNVDVSIKRYNNFVDIARLSIQKHFEHLSNDQKDSHVNNMEYMQKFVQGLQENRNISLSKYQENKAVMDLKYHLQKVYANYLSQEEN
modifications: Construct limits are not given; the soluble domain is taken from PDB 2VWA, which the paper cites for PfUIS3. The His tag was removed with thrombin; the residual myc tag is left out.
As for B1, the Kd stood at 2150 ± 121 nM.
